Article PMC11790970
Each block holds one molecule with its values, some of them ahead of it.

Key:
[1] = target: actinorhodopsin from Rhodoluna lacicola strain MWH-Ta8 (Rhodoluna lacicola strain MWH-Ta8); test: cryo-EM structure; single particle analysis, 2D classification, 4 Å projection structure from 53,376 particles; protein purified in 0.25% (w/v) Cymal-5, 2.5 mg/mL
[2] = target: actinorhodopsin from Rhodoluna lacicola strain MWH-Ta8 (Rhodoluna lacicola strain MWH-Ta8); test: SEC; Superdex 200 Increase 10/300 GL; 20 mM BTP-HCl pH 7.5, 150 mM NaCl, 0.25% (w/v) Cymal-5; sample at about 0.75-1.5 mg/mL; column calibrated with molecular weight markers
[3] = system: Asp97; conditions: cited from earlier work
[4] = target: Asp85 (UniProt position 98, WARYADWLFTT); conditions: cited from earlier work
[5] = target: Asp92 (position 92, …); test: UV-vis; conditions: not stated (pH adjusted at room temperature), 150 mM NaCl plus 100 mM acetate buffer, with residual HEPES-NaOH from a 5 mM stock diluted 5-fold, Detergent-solubilised, retinal-bound oligomeric RlActR at 0.2 mg/mL, whether the sample was light- or dark-adapted is not stated

stoichiometry N [1]: 5
stoichiometry N [2]: 5
Molecule: actinorhodopsin from Rhodoluna lacicola strain MWH-Ta8 (natural protein)

Molecule: Green-light absorbing proteorhodopsin (GPR) (uncultured marine gamma-proteobacterium)
pKa [3]: ∼7.5

Molecule: Bacteriorhodopsin (BR) (Halobacterium salinarum)
pKa [4]: ∼2.6

B1: Actinorhodopsin RlActR (Rhodoluna lacicola (strain MWH-Ta8)) (protein)
chain: MNTLSNALDNGQFNLVYNILSLGIASMLFTAIFLFVARERVLPRYRIAVMVSATVTAIAAYHYFRMFDNFSHAFAGAENNPDAYNVGYRYVDWLLTVPLLLVELVAVLALAKAAQSSILNRLVPAAAAMIVLGYPGDAKLDIWGIAPSVWGLLSTIPFLYILYVLFIELGKSLSRQSEAVQKKVKILRLLLIATWGVYPITFILAMGTPPGAPFNASEFVAREVGYSIADILAKCLFGLIIYSIARIKSAEDDKEFAKAEFKDALEGHHHHH
pKa [5]: 5.6
